Experimental data: publication PMC5847570, “Structural model of human dUTPase in complex with a novel proteinaceous inhibitor”

Key:
[1] = molecular target: human deoxyuridine 5′-triphosphate nucleotidohydrolase (dUTPase), nuclear isoform (human)
[2] = molecular target: Staphylococcal repressor protein Stl_(SaPIBov1) (Staphylococcus aureus) (UniProt Q9F0J8); assay: ITC; Stl in the cell, hDUT in the syringe; 20 °C; 20 mM HEPES pH 7.5, 300 mM NaCl, 5 mM MgCl2, 1 mM TCEP; one set of independent sites; mean and SD of three measurements; concentrations of protomers; apparent affinity
[3] = molecular target: Staphylococcal repressor protein Stl_(SaPIBov1) (Staphylococcus aureus) (UniProt Q9F0J8); assay: SEC-SAXS; hDUT:Stl complex (100 µL at ~8 mg/ml) on an S200 Increase 10/300 column in 50 mM HEPES pH 7.5, 300 mM NaCl, 5 mM MgCl2, in line with SAXS; two regions of the peak analysed
[4] = molecular target: human deoxyuridine 5′-triphosphate nucleotidohydrolase (dUTPase), nuclear isoform (human); assay: as above
[5] = molecular target: Staphylococcal repressor protein Stl_(SaPIBov1) (Staphylococcus aureus) (UniProt Q9F0J8); assay: native MS; ESI-QTOF, positive mode; 5 mM NH4HCO3 pH 7.5; hDUT, Stl or both at ca. 0.5 µM monomer
[6] = molecular target: human deoxyuridine 5′-triphosphate nucleotidohydrolase (dUTPase), nuclear isoform (human); assay: as above
[7] = molecular target: human deoxyuridine 5′-triphosphate nucleotidohydrolase (dUTPase), nuclear isoform (human); assay: SAXS; batch measurements of hDUT (0.2-2.0 mg/mL) and of Stl (0.2-0.9 mg/mL) alone; 50 mM HEPES pH 7.5, 300 mM NaCl, 5 mM MgCl2; 20 °C in the text, 283 K in Table 1
Stl (StlSaPIBov1) = Stl (StlSaPIBov1) (Staphylococcus aureus pathogenicity …, UniProt Q9F0J8 1-267); assay: EMSA; no hDUT; 100 mM NaCl; […]; binding buffer pH not stated; conditions: protein: recombinant; tags: GST-tag cleaved by thrombin, His-tag removed; N-terminal vector-derived extension remains; chain copies: 2; blunt

## Staphylococcal repressor protein Stl_(SaPIBov1) (from UniProt Q9F0J8 1-267) (natural protein)
[1]
  maximal inhibition of hDUT catalytic activity by Stl: 70%

## human deoxyuridine 5′-triphosphate nucleotidohydrolase (dUTPase), nuclear isoform (enzyme)
[2]
  Kd: 0.23 µM
  stoichiometry N (hDUT protomer per Stl protomer): 1.27
[3]
  stoichiometry N (hDUT:Stl (3:2, region 2)): 1.5
  stoichiometry N (hDUT:Stl (3:3, region 1)): 1
[4]
  stoichiometry N: 3
[5]
  stoichiometry N (hDUT:Stl (3:2)): 1.5
[6]
  stoichiometry N: 3
[7]
  stoichiometry N: 3

B1: interR 43 bp (dsDNA)
DNA 1: ATGTTGAAATAAATATCTCGATGTGAGATAATTTGTTCGAGGA
DNA 2: TCCTCGAACAAATTATCTCACATCGAGATATTTATTTCAACAT
Stl (StlSaPIBov1)
  binding result: binds
